Target: T1, Human CD3 E+G HuFc-6xHis (human)
T1 construct: also called hu CD3εγ-Fc
Assay: SPR (ProteOn XPR36), HuCD3E_HuCD3G-Fc amine-coupled, bispecific as analyte, Example 4B
Method: The binding affinity of purified DLL3/CD3 bispecific constructs for recombinant human DLL3-ECD and Fc-fusion protein of human CD3 εγ subunits was determined by Surface Plasmon Resonance (SPR), using a ProteOn XPR36 instrument (Bio-Rad).
For binding kinetic determination to CD3, HuCD3E_HuCD3G-Fc (dissolved in pH 4.5 acetate) was immobilized directly onto the sensor surface through amine coupling for 360 sec at a flowrate of 30 μl/min vertically. The baseline was stabilized by injecting PBS-T-EDTA for 60 sec at a flowrate of 30 μl/min horizontally. The analytes (all anti-DLL3/CD3 molecules) were injected horizontally over the captured antibody for 600 sec at a flowrate of 30 μl/min and a dissociation for 1800 sec.

T1 sequence (chain, as listed by the source limits assumed): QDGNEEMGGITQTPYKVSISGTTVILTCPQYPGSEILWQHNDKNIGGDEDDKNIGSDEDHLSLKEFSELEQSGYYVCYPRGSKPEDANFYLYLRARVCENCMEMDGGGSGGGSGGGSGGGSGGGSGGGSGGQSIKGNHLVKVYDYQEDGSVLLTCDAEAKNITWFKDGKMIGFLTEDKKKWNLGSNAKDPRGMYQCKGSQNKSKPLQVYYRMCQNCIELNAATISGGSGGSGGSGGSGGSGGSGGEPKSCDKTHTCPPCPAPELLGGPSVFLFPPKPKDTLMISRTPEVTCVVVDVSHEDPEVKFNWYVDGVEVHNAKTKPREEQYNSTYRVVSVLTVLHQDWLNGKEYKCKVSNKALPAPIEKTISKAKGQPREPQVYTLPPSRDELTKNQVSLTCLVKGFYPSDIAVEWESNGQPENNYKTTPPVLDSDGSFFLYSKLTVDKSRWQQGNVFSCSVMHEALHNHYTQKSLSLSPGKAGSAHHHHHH

B1: DLL3#1/CD3#1 (bispecific antibody, human IgG1, kappa, lambda, L234A L235A)
chain 1: EIVLTQSPGTLSLSPGERATLSCRASQSVSSNFLVWYQQKPGQAPRPLIYGASTRASGIPDRFSGSGSGADFTLTISRLEPEDFALYYCQQYGDSPYTFGQGTTLEIKRTVAAPSVFIFPPSDEQLKSGTASVVCLLNNFYPREAKVQWKVDNALQSGNSQESVTEQDSKDSTYSLSSTLTLSKADYEKHKVYACEVTHQGLSSPVTKSFNRGECGGGGSEGKSSGSGSESKSTEGKSSGSGSESKSTGGGGSQVQLVQSGAEVKKPGASVKVSCKASGNTFTNYYMHWVRQAPGPGLEWMGIIDPSVGSKSYAQKFLGRVTIARDTSTSTVFLDLYSLRSEDTAVYFCARAGKRFGESYFDYWGQGTLVTVSSASTKGPSVFPLAPSSKSTSGGTAALGCLVKDYFPEPVTVSWNSGALTSGVHTFPAVLQSSGLYSLSSVVTVPSSSLGTQTYICNVNHKPSNTKVDKRVEPKSCDKTHTCPPCPAPEAAGGPSVFLFPPKPKDTLMISRTPEVTCVVVDVSHEDPEVKFNWYVDGVEVHNAKTKPREEQYNSTYRVVSVLTVLHQDWLNGKEYKCKVSNKALPAPIEKTISKAKGQPREPQVYTLPPSREEMTKNQVSLWCLVKGFYPSDIAVEWESNGQPENNYKTTPPVLDSDGSFFLYSKLTVDKSRWQQGNVFSCSVMHEALHNHYTQKSLSLSPG
chain 2: EAVVTQEPSLTVSPGGTVTLTCRSSTGAVTTSNYANWVQEKPGQLPRGLIGGTNKRAPWVPARFSGSLLGGKAALTLSGAQPEDEAEYFCALWYSNLWVFGGGTKLTVLGQPKAAPSVTLFPPSSEELQANKATLVCLISDFYPGAVKVAWKADGSPVNTGVETTTPSKQSNNKYAASSYLSLTPEQWKSHRSYSCQVTHEGSTVEKTVAPAECSGGGGSEGKSSGSGSESKSTEGKSSGSGSESKSTGGGGSEVQLVESGGGLVQPGGSLKLSCAASGFTFNTYAMNWVRQAPGKGLEWVARIRSKYNNYATYYADSVKDRFTISRDDSKNTAYLQMNNLKTEDTAVYYCVRHGNFGNSYVSWFAYWGQGTLVTVSAASTKGPSVFPLAPSSKSTSGGTAALGCLVKDYFPEPVTVSWNSGALTSGVHTFPAVLQSSGLYSLSSVVTVPSSSLGTQTYICNVNHKPSNTKVDKRVEPKSCDKTHTCPPCPAPEAAGGPSVFLFPPKPKDTLMISRTPEVTCVVVDVSHEDPEVKFNWYVDGVEVHNAKTKPREEQYNSTYRVVSVLTVLHQDWLNGKEYKCKVSNKALPAPIEKTISKAKGQPREPQVYTLPPSREEMTKNQVSLSCAVKGFYPSDIAVEWESNGQPENNYKTTPPVLDSDGSFFLVSKLTVDKSRWQQGNVFSCSVMHEALHNRFTQKSLSLSPG
B1 was tested. Which Kd did it give?
Its Kd is 2 nM.
